Measurements taken from patent publication US9074002B2, “PTP1B inhibitors” (Cold Spring Harbor Laboratory, priority 2009, dated 2015).
“Also recorded” adds a separate entry of the source.

Tests used:
[1] = molecular target: T1, endogenous PTP1B-OX (Homo sapiens, UniProt P18031); assay: Intrabody interaction in 293T cells treated with H2O2 (Ni-NTA pull down / anti-PTP1B immunoprecipitation); type: cell-based; conditions: 1 mM H2O2 5 minutes, FIGS. 11, 12
T1 construct: endogenous in cells; host or cells: 293T cells (transfected only with the scFv intrabody)
T1 sequence (P18031 1-435): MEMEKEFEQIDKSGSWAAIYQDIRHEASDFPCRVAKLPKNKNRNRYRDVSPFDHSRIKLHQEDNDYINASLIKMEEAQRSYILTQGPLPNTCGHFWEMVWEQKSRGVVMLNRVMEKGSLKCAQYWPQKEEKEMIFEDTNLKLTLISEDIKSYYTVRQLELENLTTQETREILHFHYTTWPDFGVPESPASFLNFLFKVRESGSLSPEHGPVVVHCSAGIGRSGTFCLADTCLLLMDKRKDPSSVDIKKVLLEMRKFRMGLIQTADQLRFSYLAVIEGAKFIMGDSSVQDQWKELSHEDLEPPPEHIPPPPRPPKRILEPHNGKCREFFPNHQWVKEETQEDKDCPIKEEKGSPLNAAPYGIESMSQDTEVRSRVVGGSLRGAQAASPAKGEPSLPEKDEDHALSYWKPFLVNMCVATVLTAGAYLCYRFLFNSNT
Method: (§1) One of the positive candidate scFvs (scFv45) was cloned in pcDNA3.2/V5-GW/D-TOPO expression vector and transiently expressed in mammalian cells as stable intracellular antibody (aka intrabody) (FIG. 10). To detect PTP1B-OX and scFv45 interaction in mammalian cells, scFv45 was overexpressed in 293T cells as described herein (See Example 4) and 48 hours post transfection the cells were serum-starved for 16 hours in growth medium (DMEM, low glucose) without serum (FBS), then incubated with 1 mM H2O2 (in growth medium without serum) for 5 minutes at 37° C. or treated with 20 mM NAC (in growth medium without serum) for 1 hour at 37° C. Cells treated with H2O2 were washed twice with cold (4° C.) PBS and lysed in lysis buffer (25 mM HEPES, pH 7.4, 150 mM NaCl, 0.25% Deoxychloate, 1% TritonX-100, 25 mM NaF, 10 mM MgCl2, 1 mM EDTA, 10% Glycerol, 0.5 mM PMSF, 10 mM Benzamidine, protease inhibitor cocktail). Cells treated with NAC were lysed with lysis buffer containing 2 mM TCEP to ensure a post-lysis reducing environment. Interaction between PTP1B and intrabody45 were tested by pulling down the protein complex from 1 mg of total cell lysate with Ni-NTA agarose or by immunoprecipitating PTP with anti-PTP1B (FG6). For the pull down experiment, Ni-NTA agarose beads were incubated with the lysates (both oxidized and reduced) at 4° C. Protein complex bound to the Ni-NTA agarose beads was pulled down and washed three times; first with lysis buffer containing 20 mM imidazole followed by two more washes with wash buffer (PBS, pH 7.4, 20 mM imidazole, 0.05% BSA, 0.05% Tween-20 and protease inhibitors). Applicant used 20 mM imidazole in the wash buffer to reduce the non-specific binding of proteins with the Ni-NTA agarose beads. The complex was eluted with wash buffer containing 500 mM imidazole with gentle shaking at 4° C. and the eluate was mixed with SDS sample buffer with DTT. For the immunoprecipitation experiments, 1 mg of total cell lystates (both oxidized and reduced) was incubated with anti-PTP1B antibody (FG6) at 4° C. The interacting protein complex was immunoprecipitated after incubating the lysate-antibody mixture with protein A/G Sepharose at 4° C. After immunoprecipitation, Sepharose beads were washed three times; first with lysis buffer followed by two more washes with wash buffer (PBS, pH 7.4, 0.05% BSA, 0.05% Tween-20 and protease inhibitors). The Sepharose beads were then heated at 90° C. in 2×SDS sample buffer with DTT. Proteins from the pulled down or immunoprecipitated complex were separated by SDS-PAGE. PTP was detected with anti-PTP1B antibody (FG6) and the intrabodies were detected with anti-HA (3F10)-HRP antibody [anti-HA (3F10)-HRP, Roche] by immunoblotting.
In the initial in vitro phosphatase screening assay using reversibly oxidized (with H2O2) recombinant PTP1B, Applicant found four different PTP1B-OX specific scFvs (scFv45, scFv57, scFv64 and scFv106) from the initial pool of 12 different scFvs. […] Applicant has also shown that scFv45, expressed as an intrabody in mammalian cells, can bind to endogenous PTP1B-OX but not endogenous PTP under reducing conditions. Further assessment was carried out to identify additional PTP1B-OX-specific intrabodies. Additional scFvs have been subcloned in pcDNA3.2/V5-GW/D-TOPO mammalian expression vector (FIG. 10) from their respective phagemid constructs. After transient overexpression of these scFvs as intrabodies in 293T cells, the interaction between endogenous PTP1B and these intrabodies in both H2O2-treated cells and cells was observed under reducing condition (treated with NAC and lysed with lysis buffer containing TCEP). […] All can be used in the methods and compositions described herein. Additional scFvs, such as some or all of the 137 selected individual scFvs from the library, can be similarly tested by in vitro screening and/or by binding assay in mammalian cells.

[2] = molecular target: T2, endogenous PTP1B under reducing conditions (Homo sapiens, UniProt P18031); assay: Intrabody interaction in 293T cells under reducing condition (NAC, TCEP) (Ni-NTA pull down / immunoprecipitation); type: cell-based; conditions: 20 mM NAC, lysis buffer with 2 mM TCEP, FIGS. 11, 12
T2 construct: endogenous in cells; host or cells: 293T cells (transfected only with the scFv intrabody)
T2 sequence (P18031 1-435): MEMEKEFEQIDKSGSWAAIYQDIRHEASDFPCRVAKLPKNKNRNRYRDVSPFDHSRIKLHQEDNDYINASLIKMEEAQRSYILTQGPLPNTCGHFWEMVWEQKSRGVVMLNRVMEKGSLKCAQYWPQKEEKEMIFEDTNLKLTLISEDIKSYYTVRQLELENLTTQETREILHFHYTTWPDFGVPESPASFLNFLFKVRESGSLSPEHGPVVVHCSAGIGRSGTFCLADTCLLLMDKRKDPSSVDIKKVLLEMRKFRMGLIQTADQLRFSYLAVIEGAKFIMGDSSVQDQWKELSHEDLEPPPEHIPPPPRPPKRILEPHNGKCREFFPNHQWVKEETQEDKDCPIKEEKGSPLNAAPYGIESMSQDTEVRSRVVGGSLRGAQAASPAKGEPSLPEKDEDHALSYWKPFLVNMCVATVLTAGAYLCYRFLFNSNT
Method: as §1
In the initial in vitro phosphatase screening assay using reversibly oxidized (with H2O2) recombinant PTP1B, Applicant found four different PTP1B-OX specific scFvs (scFv45, scFv57, scFv64 and scFv106) from the initial pool of 12 different scFvs. […] Applicant has also shown that scFv45, expressed as an intrabody in mammalian cells, can bind to endogenous PTP1B-OX but not endogenous PTP under reducing conditions. Further assessment was carried out to identify additional PTP1B-OX-specific intrabodies. Additional scFvs have been subcloned in pcDNA3.2/V5-GW/D-TOPO mammalian expression vector (FIG. 10) from their respective phagemid constructs. […]

- binding of intrabody to endogenous PTP1B under reducing conditions [2]: not in the presence of NAC and TCEP
B1: scFv67: scFv, SEQ ID NO: 100 and 161 (protein)
scFv: MKKTAIAIAVALAGFATVAQAALTQPSSVSANPGGTVKITCSGSSSAYGYGWYQQKSPGSAPVTVIYNNNKRPSNIPSRFSGSKSGSTGTLTITGVQAEDEAVYFCGSEDSSTDAIFGAGTTLTVLGQSSRSSAVTLDESGGGLQTPGGALSLVCKASGFTFSSYDMGWVRQAPGKGLEYVAGITNDGRYASYGSAVDGRATISRDNGQSTVRLQLNNLRAEDTGTYYCARDDGSGWTGNTIDTWGHGTEVIVSSTSGQAGQHHHHHHGAYPYDVPDYAS
- binding of intrabody to endogenous PTP1B-OX [1]: bound to endogenous PTP1B-OX strongly; also recorded: co-pulldown of PTP1B-OX in the presence of H2O2
